Source: patent US20150361176A1 (GlaxoSmithKline, published 2015)
Values belong to the binder of their own block, whether it stands above or below them.

Assays:
[1] = target: T1, human TGF-βRII on cells (SBE-bla HEK 293T cells; A549 cells) (human, UniProt P37173 23-567); assay: cell-based or functional assay
[2] = target: T2, mouse TGF-βRII on MC3T3-E1 cells (mouse osteoblasts) (mouse, UniProt Q62312 24-567); assay: cell-based or functional assay
T2 sequence (looked up): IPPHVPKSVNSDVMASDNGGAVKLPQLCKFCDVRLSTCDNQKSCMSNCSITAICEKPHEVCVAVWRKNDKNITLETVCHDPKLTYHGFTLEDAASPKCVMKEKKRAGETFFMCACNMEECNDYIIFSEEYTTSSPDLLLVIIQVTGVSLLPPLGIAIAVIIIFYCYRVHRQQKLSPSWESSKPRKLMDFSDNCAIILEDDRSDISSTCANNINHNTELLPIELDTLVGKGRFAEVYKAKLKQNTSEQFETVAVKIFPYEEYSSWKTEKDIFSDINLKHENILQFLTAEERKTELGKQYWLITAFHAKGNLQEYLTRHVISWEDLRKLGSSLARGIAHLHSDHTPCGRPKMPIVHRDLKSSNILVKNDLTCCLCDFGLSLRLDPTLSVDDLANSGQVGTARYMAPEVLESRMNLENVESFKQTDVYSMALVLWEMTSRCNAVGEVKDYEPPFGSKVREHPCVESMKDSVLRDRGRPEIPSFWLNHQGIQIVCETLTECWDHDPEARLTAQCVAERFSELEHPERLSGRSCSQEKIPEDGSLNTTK

[3] = target: T1, human TGF-βRII on cells (SBE-bla HEK …); assay: cell-based or functional assay; remark: listed apart in the source
[4] = target: T1, human TGF-βRII on cells (SBE-bla HEK …); assay: cell-based or functional assay; remark: listed apart in the source
[5] = target: T3, recombinant human TGF-β RII/Fc chimera protein (human, UniProt P37173 24-159); assay: SPR Biacore, purified dAb; antigen taken as human TGF-β RII/Fc
T3 construct: range 24-159; Made in HEK-F cells; Biotinylated where it was put on SA chips, otherwise captured by anti-human IgG; also called human TGFbRII/Fc; hRII-Fc; not shown: Fc region of human IgG1
T3 sequence (P37173 24-159 limits assumed, change not shown): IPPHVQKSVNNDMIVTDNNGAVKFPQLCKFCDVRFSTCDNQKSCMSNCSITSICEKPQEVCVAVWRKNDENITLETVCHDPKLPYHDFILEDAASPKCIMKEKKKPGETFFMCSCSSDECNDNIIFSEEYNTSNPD

[6] = target: T3, recombinant human TGF-β RII/Fc chimera …; assay: SPR Biacore, against parent DOM23h-855
[7] = target: T3, recombinant human TGF-β RII/Fc chimera …; assay: SPR Biacore, against parent DOM23h-439
[8] = target: T3, recombinant human TGF-β RII/Fc chimera …; assay: SPR Biacore, against parent DOM23h-843
[9] = target: T3, recombinant human TGF-β RII/Fc chimera …; assay: SPR Biacore, human TGFbRII-FC, 1:1 model
[10] = target: T3, recombinant human TGF-β RII/Fc chimera …; assay: SPR Biacore
[11] = target: T4, cynomolgus TGF-β RII/Fc (cynomolgus); assay: SPR Biacore
T4 construct: extracellular domain; also called Cyno TGFBRII; Cyno TGFbRII

[12] = target: T1, human TGF-βRII on cells (SBE-bla HEK …); assay: cell-based or functional assay; remark: listed apart in the source
[13] = target: T2, mouse TGF-βRII on MC3T3-E1 cells (mouse …); assay: cell-based or functional assay; remark: listed apart in the source

T1 sequence (P37173 23-567): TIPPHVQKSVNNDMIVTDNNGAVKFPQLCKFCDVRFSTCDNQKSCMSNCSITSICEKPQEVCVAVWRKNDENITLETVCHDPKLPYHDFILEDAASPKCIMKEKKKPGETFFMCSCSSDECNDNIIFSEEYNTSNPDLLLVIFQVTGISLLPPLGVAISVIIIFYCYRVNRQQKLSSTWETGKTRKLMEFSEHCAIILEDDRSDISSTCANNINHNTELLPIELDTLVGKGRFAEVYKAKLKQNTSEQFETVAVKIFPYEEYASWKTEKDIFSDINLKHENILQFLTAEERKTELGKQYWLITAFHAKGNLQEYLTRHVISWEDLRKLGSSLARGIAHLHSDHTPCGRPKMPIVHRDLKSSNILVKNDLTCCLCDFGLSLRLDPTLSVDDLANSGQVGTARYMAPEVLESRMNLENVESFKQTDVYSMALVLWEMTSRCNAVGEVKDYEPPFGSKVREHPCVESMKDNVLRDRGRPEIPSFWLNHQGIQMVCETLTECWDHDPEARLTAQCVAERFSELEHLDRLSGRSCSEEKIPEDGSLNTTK

B1: DOM23h-352 (VHH, not shown: small tags and cut ends)
VHH: EVQLLESGGGLVQPGGSLRLSCAASGFTFDKYKMAWVRQAPGKGLEWVSLIFPNGVPTYYANSVKGRFTISRDNSKNTLYLQMNSLRAEDTAVYYCAKYSGQGRDFDYWGQGTLVTVSS
max % inhibition, Average (SBE-bla HEK CELLSENSOR assay, h2) [1]: 46.7%
max % inhibition, Average (Mouse 3T3 cell assay, method m2) [2]: 48%

B3: DOM23m-32 (VHH, not shown: small tags and cut ends)
VHH: EVQLLESGGGLVQPGGSLRLSCAASGFTFFEYPMGWVRQAPGKGLEWVSVISGDGQRTYYADSVKGRFTISRDNSKNTLYLQMNSLRAEDTAVYYCAKSHTGTVRHLETFDYWGQGTLVTVSS
max % inhibition, Average (Mouse 3T3 cell assay, method m1) [2]: 39.7%

B4: DOM23h-855 (VHH)
VHH: EVQLLESGGGLVQPGGSLRLSCAASGFTFENTSMGWVRQAPGKGLEWVSRIDPKGSHTYYADSVKGRFTISRDNSKNTLYLQMNSLRAEDTAVYYCAKQRELGKSHFDYWGQGTLVTVSS
notes: human VH domain antibody (dAb), naive lead; parent of DOM23h-855-21; not shown: C-terminal FLAG tag from vector pDOM10
IC50 nM, Mean (SBE-bla HEK 293T cell sensor assay, h2) [3]: > 4470 nM
Mean IC50 (nM), SBE-bla HEK 293T Cell Sensor assay (h2) [4]: > 25000 nM
Kd [5]: 941 nM
koff [5]: 0.315 s⁻¹
kon [5]: 335000 M⁻¹ s⁻¹

B5: DOM23h-855-21 (VHH)
VHH: EVQLLESGGGLVQPGGSLRLSCAASGFTFENTSMGWVRQAPGKGLEWVSRIDPKGSHTYYTDSVKGRFTISRDNSKNTLYLQMNSLRAEDTAVYYCAKQRELGKSYFDYWGQGTLVTVSS
notes: human VH dAb, error-prone matured; expressed from pDOM13, tag not described
Mean IC50 (nM), SBE-bla HEK 293T Cell Sensor assay (h2) [4]: 18600 nM
KD Fold improvement [6]: 52.3 fold
ka Fold improvement [6]: 5.6 fold
kd Fold improvement [6]: 9.4 fold
Kd [5]: 18 nM
koff [5]: 0.0336 s⁻¹
kon [5]: 1.86e+06 M⁻¹ s⁻¹

B9: DOM23h-843 (VHH)
VHH: EVQLLESGGGLVQPGGSLRLSCAASGFTFDQDRMWWVRQAPGKGLEWVSAIESGGHRTYYADSVKGRFTISRDNSKNTLYLQMNSLRAEDTAVYYCAKQNESGRSGFDYWGQGTLVTVSS
notes: human VH domain antibody (dAb), naive lead; parent of DOM23h-843-13; not shown: C-terminal FLAG tag from vector pDOM10
IC50 nM, Mean (SBE-bla HEK 293T cell sensor assay, h2) [3]: > 9010 nM
Mean IC50 (nM), SBE-bla HEK 293T Cell Sensor assay (h2) [4]: 1950 nM
Kd [5]: 378 nM
koff [5]: 0.343 s⁻¹
kon [5]: 905000 M⁻¹ s⁻¹

B11: DOM23m-4 (VHH, not shown: small tags and cut ends)
VHH: EVQLLESGGGLVQPGGSLRLSCAASGFTFTTYGMGWVRQAPGKGLEWVSWIEKTGNKTYYADSVKGRFTISRDNSKNTLYLQMNSLRAEDTAVYYCAKAGRHIKVRSRDFDYWGQGTLVTVSS
max % inhibition, Average (Human IL-11 release, h1) [1]: 70.7%
max % inhibition, Average (SBE-bla HEK CELLSENSOR assay, h2) [1]: 69%
max % inhibition, Average (Mouse 3T3 cell assay, method m1) [2]: 73.3%

B12: DOM23m-71 (VHH, not shown: small tags and cut ends)
VHH: EVQLLESGGGLVQPGGSLRLSCAASGFTFMDYRMYWVRQAPGKGLEWVSGIDPTGLRTYYADSVKGRFTISRDNSKNTLYLQMNSLRAEDTAVYYCAKIKWGEMGSYKTFDYWGQGTLVTVSS
max % inhibition, Average (Human IL-11 release, h1) [1]: -2%
max % inhibition, Average (Mouse 3T3 cell assay, method m1) [2]: 44.9%

B13: DOM23m-72 (VHH, not shown: small tags and cut ends)
VHH: EVQLLESGGGLVQPGGSLRLSCAASGFTFMDYDMSWVRQAPGKGLEWVSMIREDGGKTYYADSVKGRFTISRDNSKNTLYLQMNSLRAEDTAVYYCAKARVPYRRGHRDNFDYWGQGTLVTVSS
max % inhibition, Average (Human IL-11 release, h1) [1]: 1.7%
max % inhibition, Average (Mouse 3T3 cell assay, method m1) [2]: 17.5%

B15: DOM23h-271-22 (VHH)
VHH: EVQLLESGGGLVQPGGSLRLSCAASGFTFTEYRMWWVRQAPGKGLEWVSAIEPIGNRTYYADSVKGRFTISRDNSKNTLYLQMNSLRAEDTAVYYCAKQMPGQKWMAKSRFDYWGQGTLVTVSS
notes: human VH dAb from DNA display; expressed from pDOM13
Kd [10]: 0.202 nM
Kd [11]: 0.225 nM
Human Cell sensor IC50 [12]: 39 nM
Mouse 3T3 Luciferase assay IC50 [13]: > 17800 nM
Kd [9]: 0.286 nM
koff [9]: 0.000919 s⁻¹
kon [9]: 3.22e+06 M⁻¹ s⁻¹

Continued, values first:

max % inhibition, Average (SBE-bla HEK CELLSENSOR assay, h2) [1]: 59.8%
max % inhibition, Average (Mouse 3T3 cell assay, method m2) [2]: 48%
B2: DOM23m-101 (VHH, not shown: small tags and cut ends)
VHH: EVQLLESGGGLVQPGGSLRLSCAASGFTFSEYDMAWVRQAPGKGLEWVSRIRSDGVRTYYADSVKGRFTISRDNSKNTLYLQMNSLRAEDTAVYYCAKDRAKNGWFDYWGQGTLVTVSS

max % inhibition, Average (Human IL-11 release, h1) [1]: 79%
max % inhibition, Average (Mouse 3T3 cell assay, method m1) [2]: 78.6%
B6: DOM23m-62 (VHH, not shown: small tags and cut ends)
VHH: EVQLLESGGGLVQPGGSLRLSCAASGFTFGQESMYWVRQAPGKGLEWVSAISGSGGSTYYADSVKGRFTISRDNSKNTLYLQMNSLRAEDTAVYYCAKSGTRIKQGFDYWGQGTLVTVSS

Mean IC50 (nM), SBE-bla HEK 293T Cell Sensor assay (h2) [4]: 3570 nM
Kd [5]: 24.2 nM
koff [5]: 0.0502 s⁻¹
kon [5]: 2.08e+06 M⁻¹ s⁻¹
B7: DOM23h-439 (VHH)
VHH: EVQLLESGGGLVQPGGSLRLSCAASGFTFGTEQMWWVRQAPGKGLEWVSRIDSPGGRTYYADSVKGRFTISRDNSKNTLYLQMNSLRAEDTAVYYCAKRHAAGVSGTYFDYWGQGTLVTVSS

Mean IC50 (nM), SBE-bla HEK 293T Cell Sensor assay (h2) [4]: 48 nM
KD Fold improvement [7]: 30.3 fold
ka Fold improvement [7]: 2.1 fold
kd Fold improvement [7]: 14.2 fold
Kd [5]: 0.799 nM
koff [5]: 0.00354 s⁻¹
kon [5]: 4.43e+06 M⁻¹ s⁻¹
B8: DOM23h-439-20 (VHH)
VHH: EVQLLESGGGLVQPGGSLRLSCAASGFTFGTEQMWWVRQAPGKGLEFVSRIDSPGGRTYYADSVKGRFTISRDNSKNTLYLQMNSLRAEDTAVYYCAKRHAAGVSGTYFDYWGQGTLVTVSS
notes: as for B5

Mean IC50 (nM), SBE-bla HEK 293T Cell Sensor assay (h2) [4]: 540 nM
KD Fold improvement [8]: 91.7 fold
ka Fold improvement [8]: 5.6 fold
kd Fold improvement [8]: 16.2 fold
Kd [5]: 4.13 nM
koff [5]: 0.0211 s⁻¹
kon [5]: 5.11e+06 M⁻¹ s⁻¹
B10: DOM23h-843-13 (VHH)
VHH: EVQLLESGGGLVQPGGSLRLSCAASGFTFDQDRMWWVRQAPGKGLEWVSAIESGGHRTYYADSVKGRFTISRDNSKNTLYLQMNSLRAEDTAVYYCANQNKSGRSGFDYWGQGTLVTVSS
notes: as for B5

Kd [9]: 0.147 nM
koff [9]: 0.000472 s⁻¹
kon [9]: 3.21e+06 M⁻¹ s⁻¹
B14: DOM23h-271-21 (VHH)
VHH: EVQLLESGGGLVQPGGSLRLSCAASGFTFTEYRMWWVRQAPGKGLEWVSAIEPIGNRTYYADSVKGRFTISRDNSKNTLYLQMNSLRAEDTAVYYCAKQMPGRKWTAKFRWDYWGQGTLVIVSS
notes: as for B15

Kd [9]: 0.578 nM
koff [9]: 0.00126 s⁻¹
kon [9]: 2.17e+06 M⁻¹ s⁻¹
B16: DOM23h-271-27 (VHH)
VHH: EVQLLESGGGLVQPGGSLRLSCAASGFTFTEYRMWWVRQAPGKGLEWVSAIEPIGQKTYYADSVKGRFTISRDNSKNTLYLQMNSLRAEDTAVYYCAKQIPGRKWTANSRFDYWGQGTLVIVSS
notes: as for B15
